Data reported in the supplement of paper PMC7877785.
± gives the uncertainty stated by the source.

Experiment: self-splicing fitness, log relative to wild type (ln ratio); higher = more splicing; Tetrahymena group I intron in knt gene, E. coli kanamycin selection, DiMSum; sequences stand for … in CUCUCU…GGAGGGAAAAGUUAUCAGGCAUGCACCUGGUAGCUAGUCUUUAAACCAAUAGAUUGCAUCGGUUUAAAAGGCAAGACCGUCAAAUUGCGGGAAAGGGGUCAACAGCCGUUCAGUACCAAGUCUCAGGGGAAACUUUGAGAUGGCCUUGCAAAGGGUAUGGUAAUAAGCUGACGGACAUGGUCCUAACCACGCAGCCAAGUCCUAAGUCAACAGAUCUUCUGUUGAUAUGGAUGCAGUUCACAGACUAAAUGUCGGUCGGGGAAGAUGUAUUCUUCUCAUAAGAUAUAGUCGGACCUCUCCUUAAUGGGAGCUAGCGGAUGAAGUGAUGCAACACUGGAGCCGCUGGGAACUAAUUUGUAUGCGAAAGUAUAUUGAUUAGUUUUGGAGUACUCGUGGUCG
In short: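 Pooled colonies went to amplicon sequencing on an Illumina HiSeq 2500 after six replicate transformations. The plates were LB agar with 100 μg/mL carbenicillin, 50 μM IPTG and 0.2% rhamnose, with or without 25 μg/mL kanamycin, incubated overnight at 37°C or 30°C. The E. coli BL21(DE3) library had all eight P1ex-region intron nucleotides randomised, the intron placed in the knt kanamycin-resistance gene on pET-22b(+). DiMSum fitness is the error-weighted combination of replicate fold changes, kanamycin against none, normalised to wild type.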

| Sequence | self-splicing fitness (ln) (30 °C) | self-splicing fitness (ln) (37 °C) |
| --- | --- | --- |
| UGCGAGCAAUAUUACGCUCG | -2.91 ± 0.22 | -1.92 ± 0.23 |
| GUAGAGCAAUAUUACGUUUA | -2.09 ± 0.17 | -1.39 ± 0.17 |
| CAUCAGCAAUAUUACGUUGC | -3.81 ± 0.27 | -2.84 ± 0.2 |
| CGACAGCAAUAUUACGCGGA | -2.18 ± 0.12 | -1.9 ± 0.089 |
| UUACAGCAAUAUUACGCAGA | -1.84 ± 0.14 | -0.823 ± 0.12 |
| AGCUAGCAAUAUUACGCGUA | -3.08 ± 0.26 | -0.709 ± 0.18 |
| GCCUAGCAAUAUUACGCACC | -0.962 ± 0.26 | -0.41 ± 0.21 |
| UAAGAGCAAUAUUACGGAAG | -2.8 ± 0.41 | – |
| ACACAGCAAUAUUACGAACG | -0.869 ± 0.048 | -0.185 ± 0.068 |
| UUCUAGCAAUAUUACGCACC | -2.54 ± 0.18 | -1.94 ± 0.23 |
| GAUGAGCAAUAUUACGGUUG | -3.87 ± 0.21 | -2.22 ± 0.18 |
| ACAGAGCAAUAUUACGGACG | -3.09 ± 0.17 | -0.53 ± 0.33 |
| UCUAAGCAAUAUUACGGUUA | -3.9 ± 0.42 | -1.76 ± 0.17 |
| AGAUAGCAAUAUUACGACUC | -0.641 ± 0.12 | -0.0202 ± 0.21 |
| GCGAAGCAAUAUUACGUAAG | -2.04 ± 0.11 | -1.41 ± 0.13 |
| CAUAAGCAAUAUUACGAAGA | -2.84 ± 0.37 | -3.15 ± 0.33 |
| ACCUAGCAAUAUUACGAUCG | -1.19 ± 0.083 | -0.6 ± 0.1 |
| CUUAAGCAAUAUUACGCGUC | -2.08 ± 0.12 | -3.25 ± 0.23 |
| AAUCAGCAAUAUUACGCAUG | -0.409 ± 0.038 | 0.349 ± 0.058 |
| AUAGAGCAAUAUUACGACUA | -0.25 ± 0.073 | 0.211 ± 0.088 |
| GGAGAGCAAUAUUACGGGCG | -3.79 ± 0.29 | -2.37 ± 0.26 |
| UUAUAGCAAUAUUACGGCUC | -2.3 ± 0.26 | -0.637 ± 0.26 |
| UAACAGCAAUAUUACGCGGC | -3.99 ± 0.28 | -2.65 ± 0.35 |
| UAGGAGCAAUAUUACGAGUC | -3.68 ± 0.33 | -2.78 ± 0.3 |
| ACCAAGCAAUAUUACGAGCG | -0.886 ± 0.062 | -1.31 ± 0.081 |

| Sequence | self-splicing fitness (ln) (30 °C) | self-splicing fitness (ln) (37 °C) |
| --- | --- | --- |
| CAGAAGCAAUAUUACGACUG | -3.23 ± 0.21 | -2.48 ± 0.19 |
| GGCCAGCAAUAUUACGAAUA | -3.4 ± 0.36 | -2.71 ± 0.23 |
| CUCGAGCAAUAUUACGCUCG | -2.72 ± 0.42 | – |
| UCACAGCAAUAUUACGUCCC | -4.32 ± 0.42 | -2.01 ± 0.45 |
| GAGGAGCAAUAUUACGUGUC | -3.51 ± 0.27 | -1.91 ± 0.2 |
| GCCGAGCAAUAUUACGCUUA | -1.21 ± 0.072 | -0.233 ± 0.089 |
| GCCGAGCAAUAUUACGGAGU | -2.42 ± 0.18 | -1.56 ± 0.12 |
| ACGUAGCAAUAUUACGUGGU | -4.03 ± 0.18 | -1.13 ± 0.094 |
| CGGUAGCAAUAUUACGCCUU | -0.779 ± 0.11 | -0.542 ± 0.14 |
| GGGGAGCAAUAUUACGUAGU | – | -1.53 ± 0.37 |
| CAGUAGCAAUAUUACGCAAC | – | -1.53 ± 0.36 |
| UAUCAGCAAUAUUACGGACA | 0.27 ± 0.15 | -0.681 ± 0.17 |
| CUAUAGCAAUAUUACGGGCC | -1.54 ± 0.36 | – |
| UUUAAGCAAUAUUACGUAAA | -0.434 ± 0.1 | 0.519 ± 0.16 |
| UUCUAGCAAUAUUACGGAGG | -3.17 ± 0.34 | – |
| AGUGAGCAAUAUUACGUGAC | -2.02 ± 0.35 | -2.39 ± 0.32 |
| CCUAAGCAAUAUUACGCAGA | – | -2.34 ± 0.37 |
| GUUAAGCAAUAUUACGUAUG | -2.44 ± 0.12 | -1.36 ± 0.13 |
| GUCUAGCAAUAUUACGGGAC | – | -1.65 ± 0.45 |
| AUUAAGCAAUAUUACGCUUC | -3.05 ± 0.19 | -2.03 ± 0.18 |
| CGCGAGCAAUAUUACGCGAA | -3.88 ± 0.43 | -2.65 ± 0.23 |
| ACUUAGCAAUAUUACGGAAG | -2.44 ± 0.13 | -1.25 ± 0.14 |
| CAGCAGCAAUAUUACGUGUC | -3.31 ± 0.15 | -2.79 ± 0.18 |
| AUCUAGCAAUAUUACGCCGG | – | -1.25 ± 0.34 |
| CUAGAGCAAUAUUACGGGCC | -2.86 ± 0.34 | -1.76 ± 0.34 |

| Sequence | self-splicing fitness (ln) (30 °C) | self-splicing fitness (ln) (37 °C) |
| --- | --- | --- |
| GCUAAGCAAUAUUACGGCCG | -3.06 ± 0.25 | -2.9 ± 0.47 |
| CAGCAGCAAUAUUACGUUCU | -2.35 ± 0.072 | -1.4 ± 0.081 |
| AUAUAGCAAUAUUACGUCGA | -2.07 ± 0.17 | -1.51 ± 0.2 |
| GCCAAGCAAUAUUACGACGG | -3.8 ± 0.23 | -2.55 ± 0.21 |
| GAAUAGCAAUAUUACGUUGC | -4.27 ± 0.34 | -2.69 ± 0.37 |
| UUCUAGCAAUAUUACGAACC | – | -1.8 ± 0.33 |
| UAGUAGCAAUAUUACGCUCU | -1.71 ± 0.16 | -0.589 ± 0.17 |
| AGCCAGCAAUAUUACGCACA | -1.96 ± 0.13 | -0.518 ± 0.11 |
| CCAAAGCAAUAUUACGGUAU | -3.41 ± 0.18 | -2.08 ± 0.25 |
| CCACAGCAAUAUUACGCUCA | -2.89 ± 0.21 | -2.41 ± 0.27 |
| CCAUAGCAAUAUUACGAUUA | -3.12 ± 0.32 | -2.54 ± 0.28 |
| CUAGAGCAAUAUUACGGCUU | -2.92 ± 0.24 | -1.94 ± 0.26 |
| CGGUAGCAAUAUUACGGGCA | -1.75 ± 0.24 | -0.528 ± 0.2 |
| ACCUAGCAAUAUUACGAGCC | -2.81 ± 0.19 | -2.37 ± 0.3 |
| CUCUAGCAAUAUUACGUUGU | -3.36 ± 0.2 | -3.68 ± 0.31 |
| AUGUAGCAAUAUUACGUGCC | -1.65 ± 0.22 | -0.677 ± 0.2 |
| GCCCAGCAAUAUUACGUGGU | -4 ± 0.18 | -1.9 ± 0.14 |
| GGCAAGCAAUAUUACGGAGU | -2.62 ± 0.12 | -0.542 ± 0.1 |
| UUUUAGCAAUAUUACGCUAG | -3.18 ± 0.34 | -1.7 ± 0.35 |
| UAUCAGCAAUAUUACGACAC | -2.03 ± 0.2 | 0.634 ± 0.23 |
| GCUGAGCAAUAUUACGGUUA | -1.74 ± 0.14 | -0.208 ± 0.1 |
| CUCGAGCAAUAUUACGGUAA | -3.49 ± 0.25 | -1.88 ± 0.24 |
| UGUCAGCAAUAUUACGAAUC | -2.79 ± 0.28 | -1.08 ± 0.22 |
| UGUUAGCAAUAUUACGGGCC | -1.76 ± 0.18 | -1.6 ± 0.32 |
| AACCAGCAAUAUUACGCGUG | -1.09 ± 0.057 | -0.149 ± 0.063 |

| Sequence | self-splicing fitness (ln) (30 °C) | self-splicing fitness (ln) (37 °C) |
| --- | --- | --- |
| GCAAAGCAAUAUUACGAAGG | -2 ± 0.14 | -0.499 ± 0.17 |
| CGCUAGCAAUAUUACGCGUG | -2.8 ± 0.13 | -1.77 ± 0.12 |
| UAAAAGCAAUAUUACGUCUC | -3.48 ± 0.17 | -3 ± 0.17 |
| AAGCAGCAAUAUUACGAAGC | -3.33 ± 0.29 | -1.93 ± 0.27 |
| UAGGAGCAAUAUUACGUCUA | -0.313 ± 0.11 | 0.198 ± 0.13 |
| GGACAGCAAUAUUACGCACA | -0.778 ± 0.09 | 0.0888 ± 0.1 |
| AGCCAGCAAUAUUACGCAAC | -4.16 ± 0.32 | -1.4 ± 0.23 |
| AUAUAGCAAUAUUACGCCAA | -1.24 ± 0.45 | -0.89 ± 0.42 |
| AAAGAGCAAUAUUACGGUAA | -1.74 ± 0.3 | -1.67 ± 0.26 |
| GUCCAGCAAUAUUACGUUCU | -2.35 ± 0.09 | -0.777 ± 0.08 |
| AGGUAGCAAUAUUACGGUAG | -3.883 ± 0.03 | -2.99 ± 0.042 |
| CUGGAGCAAUAUUACGCAUG | -2.07 ± 0.13 | -0.898 ± 0.17 |
| ACGCAGCAAUAUUACGGUUG | -3.89 ± 0.2 | -1.85 ± 0.14 |
| GCGAAGCAAUAUUACGCGGC | -3.23 ± 0.22 | -2.35 ± 0.25 |
| CAGAAGCAAUAUUACGACCG | 0.169 ± 0.12 | 0.634 ± 0.15 |
| GCUGAGCAAUAUUACGCUCG | -2.7 ± 0.36 | -0.729 ± 0.26 |
| AACUAGCAAUAUUACGAUCG | -0.822 ± 0.074 | 0.0491 ± 0.1 |
| CACUAGCAAUAUUACGCAGA | -2.54 ± 0.19 | -2.16 ± 0.19 |
| AAUCAGCAAUAUUACGCUCA | 0.294 ± 0.074 | 0.323 ± 0.1 |
| AUGAAGCAAUAUUACGGCCG | -0.163 ± 0.18 | 0.947 ± 0.26 |
| GAAGAGCAAUAUUACGCGAC | -3.8 ± 0.36 | -1.18 ± 0.18 |
| UCACAGCAAUAUUACGGGUU | -3.77 ± 0.16 | -2.33 ± 0.12 |
| AUUAAGCAAUAUUACGGGGA | -3.62 ± 0.38 | -1.41 ± 0.18 |
